Results from the Immune Epitope Database (IEDB).

Key:
Assay in all cases: IEDB peptide-MHC binding, purified MHC/competitive/radioactivity; filed as Kd, often an IC50 or EC50 that approximates it; ≥ and ≤ were set here for values at or beyond the usual limits of such assays
[1] = target: HLA-A*02:02
[2] = target: HLA-A*02:03
[3] = target: HLA-A*02:06
[4] = target: HLA-A*31:01; settings: source organism: Vaccinia virus WR
[5] = target: HLA-A*11:01; settings: source organism: Vaccinia virus WR
[6] = target: HLA-A*68:01; settings: source organism: Vaccinia virus WR
[7] = target: HLA-A*33:01; settings: source organism: Vaccinia virus WR
[8] = target: HLA-A*03:01; settings: source organism: Vaccinia virus WR
[9] = source organism: Vaccinia virus WR
[10] = source organism: Dengue virus 1 Brazil/97-11/1997
[11] = source organism: Dengue virus 4 Philippines/H241/1956
[12] = source organism: SARS coronavirus Tor2
[13] = source organism: Mammarenavirus brazilense
[14] = source organism: HIV-1 M:B_ARV2/SF2
[15] = source organism: Dengue virus 3 Martinique/1243/1999

Row | Sequence | Kd [1, 9] | Kd [2, 9] | Kd [3, 9] | further results
1 | AISYCRAFI | 17.2 nM | 149 nM | 146 nM | –
2 | ALYYVHSLL | 26.1 nM | 15000 nM | 3260 nM | –
3 | AMIHKTYIDV | 335 nM | 26.7 nM | 206 nM | –
4 | CTMERTNDLT | 4050 nM | 16100 nM | 1010 nM | –
5 | DTCLLAISA | 4330 nM | 6450 nM | ≥ 25200 nM | –
6 | DTGKKELAL | 116 nM | 156 nM | 14200 nM | –
7 | DTIESAKTKI | ≥ 47900 nM | ≥ 50500 nM | ≥ 69800 nM | –
8 | DVGCLLTDT | ≥ 77800 nM | ≥ 65400 nM | ≥ 77100 nM | –
9 | FLSGKGLGKT | – | – | – | Kd [2, 10]: 32 nM
10 | GLFDINVIGL | 0.163 nM | 1.43 nM | 240 nM | –
11 | GVSGNIVSSV | – | – | – | Kd [2, 11]: 30.6 nM
12 | HLDGEVLSL | – | – | – | Kd [1, 12]: 65.9 nM; Kd [2, 12]: 131 nM; Kd [3, 12]: 160 nM
13 | IASSMKGENV | 751 nM | 3240 nM | 311 nM | –
14 | IAVANCVRNL | 57.1 nM | 467 nM | 9120 nM | –
15 | ILGIIITVGM | 288 nM | 265 nM | 4710 nM | –
16 | ILSNKLLYAA | 8.09 nM | 1110 nM | 150 nM | –
17 | ITAIYVFCI | – | – | – | Kd [1, 12]: 28.7 nM; Kd [2, 12]: 89.2 nM; Kd [3, 12]: 132 nM
18 | ITPTIEDDKI | 18700 nM | 4200 nM | 1500 nM | –
19 | ITVGMLIYSM | 47.4 nM | 6110 nM | 97.1 nM | –
20 | IVQSVLRDI | ≥ 77800 nM | 101 nM | 1310 nM | –
21 | KAKQLCYCPA | 308 nM | 188 nM | 339 nM | –
22 | KCFGNTALA | – | – | – | Kd [1, 13]: 31 nM; Kd [2, 13]: 1090 nM; Kd [3, 13]: ≥ 77000 nM
23 | KIILFQNNDI | 1610 nM | 2000 nM | 2170 nM | –
24 | KLDDTGKKEL | 101 nM | 139 nM | 5530 nM | –
25 | KLYGYASLTT | 1.88 nM | 0.261 nM | 34 nM | –

Row | Sequence | Kd [1, 9] | Kd [2, 9] | Kd [3, 9] | further results
26 | KTNTKHCPKI | ≥ 33800 nM | 10900 nM | 234 nM | –
27 | LLDDFVEII | – | – | – | Kd [1, 12]: 136 nM; Kd [2, 12]: 523 nM; Kd [3, 12]: 159 nM
28 | LLFLNDMGKV | – | – | – | Kd [2, 11]: 6.83 nM
29 | LLFMILTVA | – | – | – | Kd [2, 10]: 29.3 nM
30 | LLTHGADPNA | 9610 nM | 7510 nM | 15800 nM | –
31 | LLVQYGAKI | 206 nM | 358 nM | 1140 nM | –
32 | LMYKGLPWNV | – | – | – | Kd [1, 12]: 1.75 nM; Kd [2, 12]: 5.34 nM; Kd [3, 12]: 37.1 nM
33 | LVGPTPVNI | – | – | – | Kd [1, 14]: 38 nM; Kd [2, 14]: 17.6 nM
34 | MAGVEVRYI | 293 nM | 201 nM | 2050 nM | –
35 | MVAGGLLLAA | – | – | – | Kd [3, 11]: 19.2 nM
36 | NASKFVYVSV | 4550 nM | 8.57 nM | 823 nM | –
37 | NINFNNSSII | 6640 nM | 13300 nM | ≥ 30100 nM | –
38 | NINIEVKLFI | 12500 nM | 2050 nM | 2320 nM | –
39 | NLILNFLDWI | 1690 nM | 283 nM | 443 nM | –
40 | NLYKVYNGI | 408 nM | 61.7 nM | 817 nM | –
41 | NMDWRSLTQV | 100 nM | 17.4 nM | 1.69 nM | –
42 | NQAAILMGL | – | – | – | Kd [3, 10]: 12.5 nM
43 | NQATVLMGL | – | – | – | Kd ([3]; source organism: Dengue virus 2 Jamaica/1409/1983): 10.6 nM
44 | NTKSDNIINI | ≥ 30800 nM | 1080 nM | ≥ 69800 nM | –
45 | PAHLINKLL | 6690 nM | 6310 nM | ≥ 42300 nM | –
46 | QLCDHRLMSA | – | – | – | Kd [2, 15]: 54.2 nM
47 | QMYRKFSRCT | ≥ 25700 nM | 2270 nM | 14700 nM | –
48 | RIVVALSSLV | 47.6 nM | 7.21 nM | 9.62 nM | –
49 | RMGMGVTYL | – | – | – | Kd [2, 15]: 115 nM
50 | RVAVNKSNK | – | – | – | Kd [4]: 57.7 nM; Kd [5]: 11.5 nM; Kd [6]: 147 nM; Kd [7]: ≥ 52000 nM; Kd [8]: 6.83 nM
